{"source": "patent US10765616B2", "about": "“Oral formulation of polyglucosamine derivatives in combination with a non-fermentable sugar” (SYNEDGEN, INC., priority 2013, dated 2020)", "key": {"A431 epithelial cells": {"tested_on": "A431 epithelial cells", "protocol": "Human epithelial cell monolayers of A431 (ATCC CRL-1555) were seeded in tissue culture treated 96-well plates at a density of 2×10^4 cells/well in DMEM media supplemented with 10% FBS, 1% Penicillin-Streptomycin, and 1% Amphotericin B. Seeded cells were incubated at 37° C. with 5% CO2 for 48 hours. The media was removed and replaced with serum-free, antimicrobial-free media and rinsed one time for 30 seconds with PAAG Oral Formulation H, other oral products (Biotene, Corsodyl, Peroxyl, or Listerine), 32 μg/mL PAAG (30% functionalized, 86 kDa) and other active ingredients (0.029% lactoferrin, 0.2% chlorhexidine gluconate, 1.5% hydrogen peroxide, or 20% alcohol). Epithelial cell viability was determined by ATPLite Luminescence ATP Detection Assay System (PerkinElmer). Testing was done in duplicate.\nEpithelial cell viability was compared between PAAG and other oral active ingredients and oral rinse products. Human epithelial cell monolayers were rinsed once for 30 seconds with each treatment. Following treatment, the epithelial cells were evaluated with ATP LITE Luminecence assay that measured viability via ATP. The data was normalized to untreated cells to compare percent survival (FIG. 4). […] Epithelial cell viability was determined by ATPLite Luminescence ATP Detection Assay System (Perkin Elmer) and compared to media rinsed cells."}, "S. mutans biofilms [1]": {"tested_on": "S. mutans biofilms", "assay": "Comparative biofilm reduction study of oral rinses and active ingredients (MBEC pegs)", "type": "cell-based, Streptococcus mutans", "conditions": "72 h S. mutans biofilms, treated 2 minutes twice (6-hour interval), vs water control, active ingredients at the concentration printed in the row or sentence", "protocol": "Biofilms of S. mutans were grown on hydroxyapatite-coated pegs according to MBEC Assay™ methods for 72 hours, and then treated with the oral rinses or a water control. The corresponding active ingredients were also evaluated. The biofilms were exposed for 2-minutes, twice in a 6-hour interval to evaluate biofilm removal. Following treatment, biofilms were rinsed, fixed, and stained with 0.4% Crystal Violet, and remaining biofilm was quantitated via CFU or OD595 (Beenken and Smeltzer, 2003). Biofilms were analyzed in triplicate in at least 3 independent assays. Ratios were averaged from all assays and the percent biofilm reduced and standard error compared to water control is shown."}, "S. mutans biofilms [2]": {"tested_on": "S. mutans biofilms", "assay": "MBEC peg biofilm biomass reduction assay of active ingredients (twice daily, OD595)", "type": "cell-based, Streptococcus mutans", "conditions": "2 minutes, 8-hour interval, 32 μg/mL PAAG, 1.5% hydrogen peroxide, alcohol, lactoferrin, chlorhexidine", "protocol": "The S. mutans biofilms were grown according to MBEC™ for High-throughput Screening methods (Innovotech) on a hydroxyapatite-coated peg lid placed in trough containing BHI media supplemented with 1% sucrose rocking for 72 hours. The pegs were treated twice daily with PAAG (30% functionalized, 86 kD) active ingredients (FIG. 9) at 8-hour intervals for 2-minutes. The biofilms were rinsed in PBS, and the pegs were removed and placed into 200 μl 95% ethanol each for 2 minutes to fix the biofilms. The MBEC-HTP biofilms were stained with 150 μl of 3% Crystal Violet dye each for 2 minutes, and rinsed five times with PBS. It was noted that chlorhexidine appears to “fix” the biofilm to the pegs. The bacteria may or may not be viable because OD measured biofilm biomass, not viable CFUs. The stained and rinsed MBEC-HTP biofilms were then placed in 150 μL ethanol for 1-minute to remove the dye/biofilm. Then 100 μL of the ethanol and dyed biofilm suspension was placed into a 96-well plate and the OD595 was measured to quantify the remaining stained biofilm biomass."}}}
{"molecule": "lactoferrin (protein, UniProt P02788 20-710, looked up) Lactotransferrin: GRRRSVQWCAVSQPEATKCFQWQRNMRKVRGPPVSCIKRDSPIQCIQAIAENRADAVTLDGGFIYEAGLAPYKLRPVAAEVYGTERQPRTHYYAVAVVKKGGSFQLNELQGLKSCHTGLRRTAGWNVPIGTLRPFLNWTGPPEPIEAAVARFFSASCVPGADKGQFPNLCRLCAGTGENKCAFSSQEPYFSYSGAFKCLRDGAGDVAFIRESTVFEDLSDEAERDEYELLCPDNTRKPVDKFKDCHLARVPSHAVVARSVNGKEDAIWNLLRQAQEKFGKDKSPKFQLFGSPSGQKDLLFKDSAIGFSRVPPRIDSGLYLGSGYFTAIQNLRKSEEEVAARRARVVWCAVGEQELRKCNQWSGLSEGSVTCSSASTTEDCIALVLKGEADAMSLDGGYVYTAGKCGLVPVLAENYKSQQSSDPDPNCVDRPVEGYLAVAVVRRSDTSLTWNSVKGKKSCHTAVDRTAGWNIPMGLLFNQTGSCKFDEYFSQSCAPGSDPRSNLCALCIGDEQGENKCVPNSNERYYGYTGAFRCLAENAGDVAFVKDVTVLQNTDGNNNEAWAKDLKLADFALLCLDGKRKPVTEARSCHLAMAPNHAVVSRMDKVERLKQVLLHQQAKFGRNGSDCPDKFCLFQSETKNLLFNDNTECLARLHGKTTYEKYLGPQYVAGITNLKKCSTSPLLEACEFLRK", "values": [{"measurement": "epithelial cell viability", "setting": "A431 epithelial cells", "value": "maintain epithelial cell viability"}, {"measurement": "Percent (%) Biomass Reduced", "setting": "S. mutans biofilms [1]", "value": "25.6 ± 4.3", "unit": "%"}, {"measurement": "Percent (%) Biomass Reduced", "setting": "S. mutans biofilms [1]; listed as lactoferrin", "value": "25.6±4.3", "unit": "%"}, {"measurement": "reduction in S. mutans biofilm biomass compared to water control", "setting": "S. mutans biofilms [2]", "value": "did not significantly reduce"}]}
